According to the supplement of paper PMC9170038:

Tested on: MS2 coat protein
Assay: apparent KD of MS2 coat protein; designed switch direction (-1 OFF switch, 1 ON switch): 1; higher = weaker reporter binding
Summary of the method: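 Each step of the titration lasted 0.8–1.5 h at the lowest concentration and 10–20 min at the highest. The protein, SNAP-549-labelled MS2 coat protein, went from 0.7 or 1.5 nM doubling to 3 µM over RNA switches transcribed on Illumina chips by stalled E. coli RNA polymerase. Normalised cluster fluorescence was curve-fitted, and the per-design median over clusters is given as apparent KD.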

[1] = input ligand: microRNA oligo, concentration not stated
[2] = Eterna round: R95, input ligand: FMN 200 uM
[3] = Eterna round: R95, input ligand: microRNA oligo, concentration not stated
[4] = Eterna round: R95, input ligand: none

Sequence | apparent KD of MS2 coat protein (input ligand: FMN 200 uM) | apparent KD of MS2 coat protein [1] | apparent KD of MS2 coat protein (input ligand: none) | apparent KD of MS2 coat protein [2] | apparent KD of MS2 coat protein [3] | apparent KD of MS2 coat protein [4]
GUUACAUGAGGAUCACCCAUGUAUGUGUGGGAGUAAGUGUCUUAGGAUAUCUAUUAUUUGAAUUAAGAGAAGGAAGAUUGUUGU [JMF's solution 21] (Eterna round: R96, puzzle: Same State NG 3) | 128 nM | 69.8 nM | 103 nM | – | – | –
GUUACAUGAGGAUCACCCAUGUGUGUGUGGGAGUGAGUGGCUUAGGAUAUCUAUGAUUUAAGUUAAGAGAAGGGAGAUUGUUGU [SS-NG3-LRO04] (Eterna round: R96, puzzle: Same State NG 3) | 441 nM | 330 nM | 344 nM | – | – | –
GUUAGGAAUCUAGCAAACAUGAGGAUCACCCAUGUUAGUGGGAAGGAUAUGGUACAGAAACUGUACCAGAAGGUCUUAUUAAUU [Omei SS(NG) 3 AV2] (Eterna round: R96, puzzle: Same State NG 3) | 58.3 nM | 39.1 nM | 55.7 nM | – | – | –
UAAAUAAUGUAAGGAUAUACAUGAGGAAUUCUCGUAGAAGGUACAUGACAUGAGGAUCACCCAUGUAUCGCUCAGUAGAGCGUA [Mat - Same State NG 1 - JL mod - D27] (Eterna round: R96, puzzle: Same State NG 1) | – | 48.3 nM | – | – | – | –
UAAGAACAUGAGGAUCACCCAUGUGGAAAGAACACAGGAUAUCAUGGAAGAACGAAACCAUGAGAAGGGUGACACG [Raatis] (puzzle: Same State 1) | – | – | – | 6270 nM | 225 nM | 24.3 nM
UACAAUCUAUCUGAGGAUAUCAUGAAAUAAACAUGAGGAUCACCCAUGUGCAGGAAAACUGCAUAUGAGAAGGCAGAUAGAUUGU [salish99_ss2_r3_059] (puzzle: Same State 2) | – | – | – | 41.1 nM | 662 nM | 1640 nM
UACCAACAAAUAAAACAAGCGUGCUCGUCACAUGAGGAUCACCCAUGUUUAAACGCUGUACCUACAUCCUCAGCGCC [Usatqulale] (puzzle: Sensor for hsa-mir-208a) | – | – | – | 38.9 nM | 31.3 nM | 52 nM
UACCUACCAGGAGGAUAUACAAACCCGAAAGGAGUAGAAGGCCUGAGUACUAACAUGAGGAUCACCCAUGUAGCGCCAGUUCGC [Eternabot solution 10] (Eterna round: R96, puzzle: Same State NG 1) | 18.2 nM | 15.1 nM | 17.4 nM | – | – | –
UACUGAGUCGUAGGAUAUGUAGGAUAUGGCGAGAGCUAAGCUUGGAAGUCACUUCAGCCAGAAGGACAGAAGGACGACUCUCUC [pwkr ssNG2 2FMN + F9.13] (Eterna round: R96, puzzle: Same State NG 2) | 40 nM | 273 nM | 51.1 nM | – | – | –
UAGAAACAUGAGGAUCACCCAUGUGUCAAAGACAUAGGAUAUCACAACUGGCGCCAGUCGUGAGAAGGGUGGUAAA [Usonesat] (puzzle: Same State 1) | – | – | – | 229 nM | 53.6 nM | 84.7 nM
UAGAGAGGAAGCGAGGAUAUCGUGGGAGGAACAUGAGGAUCACCCAUGUGUGAUGUUGAGAGGAACGAGAAGGCGCAGGAAAGUA [JR_SS2_Sub078] (puzzle: Same State 2) | – | – | – | 83.3 nM | 83.1 nM | 143 nM
UAGAGAGGAAGCGAGGAUAUCGUGUGAGGAACAUGAGGAUCACCCAUGUGUGAUGUUGAGAGAGACGAGAAGGCGCAGGAAAUUA [JR_SS2_Sub082] (puzzle: Same State 2) | – | – | – | – | 116 nM | –
